This test has as its target Gi-GPCRs on endothelial cells. Briefly: cell-based or functional assay.

With “Full-length recombinant human GlyRS (from UniProt P41250 55-739) (enzyme)”, the inhibition of forskolin-stimulated cAMP production, 25 and 100 nM uncleaved GlyRS turned out to be 10%.

The values above are taken from patent US20100028352A1.
